1 molecule from article PMC4446433, “Crystal structure of the Bloom's syndrome helicase indicates a role for the HRDC domain in conformational changes” (Nucleic Acids Research, 2015) can be followed below.

The assay has as its target T1, BLM^636–1072, including the RecA domains (human, UniProt P54132 636-1072).
T1 construct: also called RecA core; D1/D2 domains
Put plainly: BLI; biotinylated HRDC domain immobilised on streptavidin biosensors, RecA domains in solution, in the presence of ADP or ATP; 20-mM HEPES pH 7.5, 200-mM NaCl, 5% glycerol; 60-s windows; Octet RED384; apparent. Conditions: both partners purified.

T1 sequence (P54132 636-1072): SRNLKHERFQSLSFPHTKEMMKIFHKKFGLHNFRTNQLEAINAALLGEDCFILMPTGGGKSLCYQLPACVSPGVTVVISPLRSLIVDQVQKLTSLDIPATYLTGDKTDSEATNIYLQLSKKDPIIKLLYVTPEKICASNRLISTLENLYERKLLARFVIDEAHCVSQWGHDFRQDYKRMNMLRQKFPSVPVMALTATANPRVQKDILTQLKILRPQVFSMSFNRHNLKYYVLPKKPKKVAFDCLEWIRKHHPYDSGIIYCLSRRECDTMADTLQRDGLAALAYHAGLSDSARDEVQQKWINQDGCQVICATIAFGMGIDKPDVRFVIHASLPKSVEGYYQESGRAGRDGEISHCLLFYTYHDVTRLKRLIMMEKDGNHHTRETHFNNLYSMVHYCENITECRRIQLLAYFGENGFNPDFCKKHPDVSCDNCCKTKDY

B1: BLM^1206–1298, encoding the HRDC domain (domain or fragment, human, UniProt P54132 1206-1298, looked up)
chain: AKVSQREEMVKKCLGELTEVCKSLGKVFGVHYFNIFNTVTLKKLAESLSSDPEVLLQIDGVTEDKLEKYGAEVISVLQKYSEWTSPAEDSSPG
modifications: biotin (on the C-terminal biotin acceptor sequence)
notes: The His10 tag is TEV-cleavable, but no cleavage is described; also called isolated HRDC domain; biotinylated HRDC domain; source: E. coli in TB medium with biotin, purified (Ni-IDA, S75 Superdex)
Regarding B1, the Kd lay within 30 to 100 µM.
